Square brackets hold non-standard residues; d marks the D form. Ends that are not written are not given here. Ahx = NCCCCCC(=O)O; βAla = NCCC(=O)O
Columns and labels:
[1] = fmoc spps; Fmoc-beta-Ala-OH preloaded Wang resin (0.19 or 0.46 mmol g-1); PyBOP/NMM; PyBOP/HOAt/DIPEA (or HBTU) for PMO conjugation; settings: conjugation step, UV-Vis, based on PMO extinction coefficient, scale 10 pmol or 100 pmol (so in the source)
[2] = Toxicological assessment of peptide-PMO (urinary KIM-1, NGAL; serum BUN); type: in vivo, C57BL/6 mice; settings: for urinary KIM-1 levels: single dose 30 mg/kg (2.5-50 mg/kg); for urinary KIM-1 levels / urinary NGAL levels: urine Day 2 and Day 7, normalised to urinary creatinine; for urinary NGAL levels: single dose 30 mg/kg
Protocol: Female C57BL/6 mice aged 8-10 weeks were administered a single 30 mg/kg dose of peptide-PMO in 0.9% saline by bolus intravenous tail vein injection. Urine was non-invasively collected under chilled conditions at Day 2 and Day 7 post-administration following 20 hours housing in metabolic cages (Tecniplast, UK). Serum was collected from jugular vein at Day 7 at necropsy, as was tibialis anterior, diaphragm and heart tissue.
The same procedure was followed at different single dosage amounts ranging from 2.5 mg/kg up to 50 mg/kg of peptide-PMO in 0.9% saline by intravenous tail vein injection.
Urinary levels of KIM-1 (Kidney injury molecule-1) and NGAL (Neutrophil Gelatinase-Associated Lipocalin) were quantified by ELISA (KIM-1 R&D cat #MKM100, NGAL R&D cat #MLCN20) following appropriate dilution of urine to fit standard curves. Values were normalised to urinary creatinine levels that were quantified at MRC Harwell Institute, Mary Lyon Centre, Oxfordshire, UK. Serum blood urea nitrogen levels were quantified at MRC Harwell Institute, Mary Lyon Centre, Oxfordshire, UK.
All levels were quanitifed on an AU680 Clinical Chemistry Analyser, Beckman Coulter. Quantification of exon skipping efficacy was determined by quantitative RT-PCR of exon 23 skipped and unskipped transcripts and expressed as percentage of skipped versus total (skipped and unskipped) transcripts (see Table 7 for sequences).

[3] = test system: dystrophin; settings: in vivo; cited from earlier work
[4] = test system: human hepatocytes; assay: Hepatocyte cell viability (fluorescent-based assay); settings: 40 uM
Protocol: Immortalized myoblasts from healthy individual or DM1 patient with 2600 CTG repeats were cultivated in a growth medium consisting of a mix of M199: DMEM (1:4 ratio; Life technologies) supplemented with 20% FBS (Life technologies), 50 µg/ml gentamycin (Life technologies), 25 pg/ml fetuin, 0.5 ng/ml bFGF, 5 ng/ml EGF and 0.2 pg/ml dexamethasone (Sigma-Aldrich). Myogenic differentiation was induced by switching confluent cell cultures to DMEM medium supplemented with 5 pg/ml insulin (Sigma-Aldrich) for myoblasts. For treatment, WT or DM1 cells are differentiated for 4 days. Then, medium was changed with fresh differentiation medium with peptide-PMOs at a 1, 2, 5 10, 20 or 40 pM concentration. Cells were harvested for analysis 48 h after treatment. Cell viability was quantified in after 2 days of transfection of peptide-PMOs at 40 uM in human hepatocytes or at a 1, 2, 5 10, 20 or 40 pM concentration in human myoblasts using a fluorescent-based assay (Promega).

[5] = Recovery times of mice after injection with peptide-PMOCAG7 conjugates; type: in vivo, C57BL6 mice; settings: 12.5 mg/kg; HSA-LR mice; age 8-12 weeks
Protocol: Animal experiments and ASO injections. Experiments were carried out in the University of Oxford according to UK legislation. The intravenous injections in HSA-LR C57BL/6 mice were performed by single or repeated administrations via the tail vein. Doses of 30, 12.5, 7.5 and 5 mg/kg of peptide-PMO-CAG7 (SEQ ID NO: 192) were diluted in 0.9% saline and given at a volume of 5-6 pL/g of body weight. KIM-1 levels in C57BL6 female mice measured by ELISA (R&D cat #MKM100) with samples diluted to fit within standard curve. Values were normalised to urinary creatinine levels (Harwell) to account for urine protein concentration.

Substance: Ac-RBRRBRFQILYBRBR-(E)-PMO (GGCCAAACCTCGGCTTACCTGAAAT; peptide Ac-RBRRBRFQILYBRBR-(E) conjugated, chemistry not fully specified)
- conjugation yield [1]: 39%

Substance: Ac-RBRRBRRFQILYRBHBH-(Ab)-PMO (GGCCAAACCTCGGCTTACCTGAAAT; listed as DNA, chemistry not fully specified)
- conjugation yield [1]: 26%

Substance: DPEP 1.9 (Ac-R[βAla]RR[βAla]RFQILY[βAla]R[βAla]R[βAla]; also: PMO conjugate, site not given here)
- urinary KIM-1 levels [2]: lowest levels
- urinary NGAL levels [2]: lowest levels

Substance: DPEP 3.8 (Ac-R[βAla]RR[βAla]RFQILYR[βAla]H[βAla]H[βAla]; also: PMO conjugate, site not given here)
- urinary KIM-1 levels [2]: lowest levels
- urinary NGAL levels [2]: lowest levels

Substance: Pip9b2 (Ac-R[Ahx]RR[βAla]RRFQILYR[βAla]R[Ahx]R[βAla]; also: PMO conjugate, site not given here) [reference compound]
- Serum blood urea nitrogen levels ([2]; 7 days after single dose of 30 mg/kg): elevated

Substance: eteplirsen
- levels of dystrophin restoration [3]: approximately 1 % of normal dystrophin levels

Substance: pip6a: prior peptide carrier AC-RXRRBRRXR-YQFLI-RXRBRXR-B conjugated to [CAG]7 PMO (SEQ ID NO: 192) (Ac-R[Ahx]RR[βAla]RR[Ahx]RYQFLIR[Ahx]R[βAla]R[Ahx]R[βAla]; also: conjugated to [CAG]7 PMO, site not given here) [reference compound]
- percentage hepatocyte cell viability [4]: cell mortality
- Recovery time after injection, Time AV ± SD [5]: >60 min

Reference: patent publication US12673108B2 (Oxford University Innovation Limited, priority 2021, dated 2026)
